According to patent US20130217633A1:

Key:
[1] = target: Bcl-2 of primary chronic lymphocytic leukemia (CLL) cells (human) (UniProt P10415); test: cell-based or functional assay
[2] = target: wild type Bcl-2 (overexpressed in WEHI7.2 cells) (UniProt P10415); test: cell-based or functional assay
wild type Bcl-2 (overexpressed in WEHI7.2 cells), sequence (P10415 whole entry): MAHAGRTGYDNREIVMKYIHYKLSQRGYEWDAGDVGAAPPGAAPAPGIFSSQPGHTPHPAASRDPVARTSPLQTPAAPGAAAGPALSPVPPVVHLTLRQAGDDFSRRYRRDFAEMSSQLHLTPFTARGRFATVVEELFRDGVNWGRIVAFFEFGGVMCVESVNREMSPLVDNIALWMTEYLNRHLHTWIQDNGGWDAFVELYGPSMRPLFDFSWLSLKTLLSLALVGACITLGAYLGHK

Bcl-2 of primary chronic lymphocytic leukemia (CLL) cells (human), sequence (P10415 whole entry): as above

TAT-IDP (IP3R-derived peptide fused with the cell-penetrating peptide of HIV TAT)
percentage of primary CLL cells with Ca2+ elevation [1]: 26% | Ca^2+ spikes per cell (single cell Ca2+ imaging, Bcl-2-positive WEHI7.2 cells) (Ca^2+ spikes per cell) [2]: 6 | percentage of Bcl-2-positive WEHI7.2 cells with a sustained pattern of Ca^2+ oscillations (three or more peaks) [2]: 36% | percentage of Bcl-2-positive WEHI7.2 cells with one or two isolated Ca^2+ oscillations [2]: 22%
